Assay results as given in paper doi:10.1101/2025.04.28.650843 (bioRxiv, 2025).

Target: the molecule itself
Test: cryo-EM structure; single-particle reconstruction of intact PBS isolated from Synechococcus 7942 in 0.75 M K/Na-PO4 pH 7.0 with 0.0125% glutaraldehyde; diluted on the grid with 50 mM Tris pH 7.0; 2.98 Å

B1: phycocyanin (PC) (complex)
chain 1: not shown
chain 2: MTFDAFTKVVAQADARGEFLSDAQLDALSRLVAEGNKRIDTVNRITGNASSIVANAARALFAEQPSLIAPGGNAYTNRRMAACLRDMEIILRYVTYAVFTGDASILDDRCLNGLRETYLALGVPGASVAEGVRKMKDAAVAIVSDRNGITQGDCSAIISELGSYFDKAAAAVA
modifications: covalently attached phycocyanobilin (PCB), positions not printed | covalently attached phycocyanobilin (PCB), positions not given
notes: as m5; as m2; The alpha-beta monomer; it forms the hexamers of the peripheral rods (72 alpha-beta monomers in six rods of two hexamers each); also called alpha-beta monomer of phycocyanin
- stoichiometry N: 6
